This is an account of results in US20180155451A1 (published 2018).

T1: FcγRIIb extracellular domain with C-terminal His tag (human, UniProt P31994 43-217)
T1 construct: extracellular domain; also called FcgRIIb; 2b; not shown: His tag attached to the C terminus
T1 sequence (looked up): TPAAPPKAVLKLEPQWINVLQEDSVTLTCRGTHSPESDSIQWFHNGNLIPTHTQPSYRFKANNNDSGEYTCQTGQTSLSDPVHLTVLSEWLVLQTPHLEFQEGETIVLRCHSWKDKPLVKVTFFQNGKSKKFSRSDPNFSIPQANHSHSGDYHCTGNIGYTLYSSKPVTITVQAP

B1: GpH7-A5/GpH7-B3 variant K326_04F/GpL16-k0 (antibody, human IgG1, kappa)
heavy 1: not shown
heavy 2: not shown
light: DIVMTQSPLSLPVTPGEPASISCQASESLVHSNRNTYLHWYLQKPGQSPQLLIYKVSNRFSGVPDRFSGSGSGTDFTLKISRVEAEDVGVYYCSQNTHVPPTFGQGTKVEIERTVAAPSVFIFPPSDEQLKSGTASVVCLLNNFYPREAKVQWKVDNALQSGNSQESVTEQDSKDSTYSLSSTLTLSKADYEKHKVYACEVTHQGLSSPVTKSFNRGEC
notes: Heterodimerized IgG1; alteration in one H chain only; also called He Ab
B2: GpH7-A5/GpH7-B3 variant N325_09D/GpL16-k0 (antibody, human IgG1, kappa)
heavy 1: not shown
heavy 2: not shown
light: B1 light
notes: as for B1
B3: GpH7-A5/GpH7-B3 variant S298_08L/GpL16-k0 (antibody, human IgG1, kappa)
heavy 1: not shown
heavy 2: not shown
light: B1 light
notes: as for B1
B4: GpH7-A5/GpH7-B3 variant L328_04F/GpL16-k0 (antibody, human IgG1, kappa)
heavy 1: not shown
heavy 2: not shown
light: B1 light
notes: as for B1
B5: GpH7-A5/GpH7-B3 variant K326_19Q/GpL16-k0 (antibody, human IgG1, kappa)
heavy 1: not shown
heavy 2: not shown
light: B1 light
notes: as for B1
B6: GpH7-A5/GpH7-B3 variant N325_19Q/GpL16-k0 (antibody, human IgG1, kappa)
heavy 1: not shown
heavy 2: not shown
light: B1 light
notes: as for B1
B7: GpH7-A5/GpH7-B3 variant K326_20W/GpL16-k0 (antibody, human IgG1, kappa)
heavy 1: not shown
heavy 2: not shown
light: B1 light
notes: as for B1
B8: GpH7-A5/GpH7-B3 variant N325_15Y/GpL16-k0 (antibody, human IgG1, kappa)
heavy 1: not shown
heavy 2: not shown
light: B1 light
notes: as for B1
B9: GpH7-A5/GpH7-B3 variant N325_03V/GpL16-k0 (antibody, human IgG1, kappa)
heavy 1: not shown
heavy 2: not shown
light: B1 light
notes: as for B1
B10: GpH7-A5/GpH7-B3 variant N325_20W/GpL16-k0 (antibody, human IgG1, kappa)
heavy 1: not shown
heavy 2: not shown
light: B1 light
notes: as for B1
B11: GpH7-A5/GpH7-B3 variant K326_08L/GpL16-k0 (antibody, human IgG1, kappa)
heavy 1: not shown
heavy 2: not shown
light: B1 light
notes: as for B1
B12: GpH7-A5/GpH7-B3 variant K326_09D/GpL16-k0 (antibody, human IgG1, kappa)
heavy 1: not shown
heavy 2: not shown
light: B1 light
notes: as for B1
B13: GpH7-A5/GpH7-B3 variant L328_03V/GpL16-k0 (antibody, human IgG1, kappa)
heavy 1: not shown
heavy 2: not shown
light: B1 light
notes: as for B1
B14: GpH7-A5/GpH7-B3 variant K326_06M/GpL16-k0 (antibody, human IgG1, kappa)
heavy 1: not shown
heavy 2: not shown
light: B1 light
notes: as for B1
B15: GpH7-A5/GpH7-B3 variant L328_05P/GpL16-k0 (antibody, human IgG1, kappa)
heavy 1: not shown
heavy 2: not shown
light: B1 light
notes: as for B1
B16: GpH7-A5/GpH7-B3 variant L328_01G/GpL16-k0 (antibody, human IgG1, kappa)
heavy 1: not shown
heavy 2: not shown
light: B1 light
notes: as for B1

The target of one experiment is T2, FcγRIIIa extracellular domain with C-terminal His tag (human, UniProt P08637 17-208).
T2 construct: extracellular domain; also called FcgRIIIa; 3a; not shown: His tag attached to the C terminus
T2 sequence (P08637 17-208): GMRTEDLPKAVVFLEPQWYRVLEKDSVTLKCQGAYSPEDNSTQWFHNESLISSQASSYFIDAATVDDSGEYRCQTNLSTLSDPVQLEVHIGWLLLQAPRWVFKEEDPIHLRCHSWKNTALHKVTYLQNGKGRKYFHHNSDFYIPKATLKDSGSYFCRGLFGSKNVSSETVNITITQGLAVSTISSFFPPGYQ
In words: SPR (Biacore); He/Con_3a divided by He/Con_2b (reference: binding to FcγRIIb). On the procedure:
(§1) Analysis of interaction between objective antibody and the FcγR was carried out using Biacore T100 (GE Healthcare). HBS-EP+ (GE Healthcare) was used as the running buffer, and the measurement temperature was set to 25° C. Chips produced by immobilizing the antigen peptide by the amine coupling method to a Series S Sencor Chip CM5 (GE Healthcare), or alternatively, chips produced by allowing preliminarily biotinylated antigen peptides to interact with and immobilize onto a Series S Sensor Chip SA (certified) (GE Healthcare) were used. Antibodies of interest were captured onto an antigen peptide-immobilized chip, and allowed to interact to each FcγR diluted with running buffer. To regenerate and repeatedly use the chip, the antibodies captured on the chip were washed off by reacting 10 mM glycine-HCl, pH 1.5.
(§2) The FcγR-binding activity of each antibody was assessed primarily using as an indicator the FcγR-binding activity and dissociation constant for FcγR.
In general terms: SPR reads the build-up and loss of mass on a sensor chip optically.
Take B1: the “He_3a/2b (IIIa/IIb)” value was 0.66 ratio.

Turning to B2, the “He_3a/2b (IIIa/IIb)” value came out at 0.39 ratio.

With B3, the “He_3a/2b (IIIa/IIb)” value turned out to be 0.68 ratio.

Take B4: the “He_3a/2b (IIIa/IIb)” value stood at 0.36 ratio.

Take B5: the “He_3a/2b (IIIa/IIb)” value worked out at 0.76 ratio.

On to B6, for which the “He_3a/2b (IIIa/IIb)” value worked out at 0.46 ratio.

B7: the “He_3a/2b (IIIa/IIb)” value was 0.57 ratio.

Turning to B8, the “He_3a/2b (IIIa/IIb)” value turned out to be 0.3 ratio.

As to B9, the “He_3a/2b (IIIa/IIb)” value was 0.27 ratio.

As to B10, the “He_3a/2b (IIIa/IIb)” value turned out to be 0.19 ratio.

As to B11, the “He_3a/2b (IIIa/IIb)” value is 0.65 ratio.

For B12, the “He_3a/2b (IIIa/IIb)” value turned out to be 0.69 ratio.

In the case of B13, the “He_3a/2b (IIIa/IIb)” value amounted to 0.63 ratio.

Consider B14, for which the “He_3a/2b (IIIa/IIb)” value is 0.7 ratio.

As to B15, the “He_3a/2b (IIIa/IIb)” value was 0.62 ratio.

With B16, the “He_3a/2b (IIIa/IIb)” value was found to be 0.56 ratio.

The target in another experiment is T1, FcγRIIb extracellular domain with …. In words: SPR (Biacore), relative binding. On the procedure:
as §1, §2
B1: the “He/Con_2b (IIb binding)” value is 155 % of GpH7-A5/GpH7-B3/GpL16-k0 (=100).

In the case of B2, the “He/Con_2b (IIb binding)” value was 124 % of GpH7-A5/GpH7-B3/GpL16-k0 (=100).

On to B3, for which the “He/Con_2b (IIb binding)” value is 108 % of GpH7-A5/GpH7-B3/GpL16-k0 (=100).

With B4, the “He/Con_2b (IIb binding)” value was 219 % of GpH7-A5/GpH7-B3/GpL16-k0 (=100).

In the case of B5, the “He/Con_2b (IIb binding)” value was 139 % of GpH7-A5/GpH7-B3/GpL16-k0 (=100).

For the molecule B6, the “He/Con_2b (IIb binding)” value was 69.1 % of GpH7-A5/GpH7-B3/GpL16-k0 (=100).

In the case of B7, the “He/Con_2b (IIb binding)” value is 148 % of GpH7-A5/GpH7-B3/GpL16-k0 (=100).

Turning to B8, the “He/Con_2b (IIb binding)” value is 99.5 % of GpH7-A5/GpH7-B3/GpL16-k0 (=100).

Take B9: the “He/Con_2b (IIb binding)” value was 111 % of GpH7-A5/GpH7-B3/GpL16-k0 (=100).

For B10, the “He/Con_2b (IIb binding)” value is 169 % of GpH7-A5/GpH7-B3/GpL16-k0 (=100).

Regarding B11, the “He/Con_2b (IIb binding)” value is 177 % of GpH7-A5/GpH7-B3/GpL16-k0 (=100).

For B12, the “He/Con_2b (IIb binding)” value is 193 % of GpH7-A5/GpH7-B3/GpL16-k0 (=100).

On to B13, for which the “He/Con_2b (IIb binding)” value was 126 % of GpH7-A5/GpH7-B3/GpL16-k0 (=100).

As for B14, the “He/Con_2b (IIb binding)” value is 165 % of GpH7-A5/GpH7-B3/GpL16-k0 (=100).

Consider B15, for which the “He/Con_2b (IIb binding)” value was 65.1 % of GpH7-A5/GpH7-B3/GpL16-k0 (=100).

On to B16, for which the “He/Con_2b (IIb binding)” value is 80.2 % of GpH7-A5/GpH7-B3/GpL16-k0 (=100).

For the next experiment, the target named is T2, FcγRIIIa extracellular domain with …. The experiment is described as follows: SPR (Biacore), relative binding. On the procedure:
as §1, §2
For the molecule B1, the “He/Con_3a (IIIa binding)” value is 103 % of GpH7-A5/GpH7-B3/GpL16-k0 (=100).

In the case of B2, the “He/Con_3a (IIIa binding)” value was 48 % of GpH7-A5/GpH7-B3/GpL16-k0 (=100).

In the case of B3, the “He/Con_3a (IIIa binding)” value is 73.5 % of GpH7-A5/GpH7-B3/GpL16-k0 (=100).

With B4, the “He/Con_3a (IIIa binding)” value was 79.3 % of GpH7-A5/GpH7-B3/GpL16-k0 (=100).

In the case of B5, the “He/Con_3a (IIIa binding)” value was 106 % of GpH7-A5/GpH7-B3/GpL16-k0 (=100).

With B6, the “He/Con_3a (IIIa binding)” value is 31.6 % of GpH7-A5/GpH7-B3/GpL16-k0 (=100).

Take B7: the “He/Con_3a (IIIa binding)” value is 84.8 % of GpH7-A5/GpH7-B3/GpL16-k0 (=100).

In the case of B8, the “He/Con_3a (IIIa binding)” value was 29.5 % of GpH7-A5/GpH7-B3/GpL16-k0 (=100).

On to B9, for which the “He/Con_3a (IIIa binding)” value was 30.3 % of GpH7-A5/GpH7-B3/GpL16-k0 (=100).

B10: the “He/Con_3a (IIIa binding)” value was 32.8 % of GpH7-A5/GpH7-B3/GpL16-k0 (=100).

B11: the “He/Con_3a (IIIa binding)” value is 114 % of GpH7-A5/GpH7-B3/GpL16-k0 (=100).

For the molecule B12, the “He/Con_3a (IIIa binding)” value was 134 % of GpH7-A5/GpH7-B3/GpL16-k0 (=100).

As for B13, the “He/Con_3a (IIIa binding)” value is 78.7 % of GpH7-A5/GpH7-B3/GpL16-k0 (=100).

For the molecule B14, the “He/Con_3a (IIIa binding)” value is 115 % of GpH7-A5/GpH7-B3/GpL16-k0 (=100).

Turning to B15, the “He/Con_3a (IIIa binding)” value was 40.5 % of GpH7-A5/GpH7-B3/GpL16-k0 (=100).

As to B16, the “He/Con_3a (IIIa binding)” value is 44.9 % of GpH7-A5/GpH7-B3/GpL16-k0 (=100).
